Data reported in patent US12473352 (SUN YAT SEN UNIVERSITY, dated 2025).
Substitutions are numbered along the chain they refer to.

T1: human IFP35 protein (human, UniProt P80217 1-286, limits assumed)
T1 construct: also called interferon-induced protein 35; IFI35
T1 chain: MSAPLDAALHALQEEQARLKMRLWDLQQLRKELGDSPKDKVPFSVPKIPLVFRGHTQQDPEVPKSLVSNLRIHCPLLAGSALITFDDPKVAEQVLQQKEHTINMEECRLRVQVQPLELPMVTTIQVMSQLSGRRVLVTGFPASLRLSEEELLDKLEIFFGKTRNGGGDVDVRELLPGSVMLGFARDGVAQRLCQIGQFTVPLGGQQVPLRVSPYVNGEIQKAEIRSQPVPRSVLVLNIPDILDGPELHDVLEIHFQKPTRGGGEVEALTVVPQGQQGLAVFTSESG

B1: 35NIDmAb (antibody, V domains shown)
VH: VQLVESGPELKKPGETVKISCKASGYTFTNYGMNWVKQAPGKGLKWMGWINTYTGEPTFADDFKGRFAFSLETSASTAYLQINNLKNEDTATYFCARYGYSWAMDYWGQGTSVTVSS
VL: DIVMTQSPAIMSASPGEKVTMTCSASSSVSYMHWYQQKSGTSPKRWIYDTSKLASGVPARFSGSGSGTSYSLTISSMEAEDAATYYCQQWSSNPPITFGAGTKLEIK
notes: Mouse monoclonal antibody from hybridoma ascites; also called AE001-VH+VL; AE001-VH+VL (35NIDmAb)
B2: IFP35 NID (other)
chain: IQVMSQLSGRRVLVTGFPASLRLSEEELLDKLEIFFGKTRNGGGDVDVRELLPGSVMLGFARDGVAQRLCQIGQFTVPLGGQQVPLRVSPYVNGEIQ
notes: also called NID domain of IFP35 (a fragment consisting of amino acids at positions 124-220); antigen IFP35 NID
B3: AE001-6 (antibody, human IgG1, V domains shown)
VH: QVQLVQSGAEVKKPGASVKVSCKASGYTFTNYGMNWVRQAPGQGLEWMGWINTYTGEPTVAQKFQGRFTFTLDTSTSTAYLELSSLRNEDTAVYFCARYGYSWAMDYWGQGTSVTVSS
VL: DIQMTQSPSSLSASVGDRVTITCQASSSVSYMHWYQQKPGKAPKRLIYDTSKLASGVPSRFSGSGSGTDYTLTISSLQPEDIATYYCQQWSPYPPITFGAGTKLEIK
notes: Human IgG1; CDR mutant of AE001-H3+L3; also called AE001-6Hc + Lc; AE001-6HC + LC
B4: AE001-7 (antibody, human IgG1, V domains shown)
VH: B3 VH
VL: B3 VL with P92S, Y93N, P94S, P95W, I96S
notes: Human IgG1; CDR mutant of AE001-H3+L3; also called AE001-6Hc + 7Lc; AE001-6HC + 7LC
B5: AE001-8 (antibody, human IgG1, V domains shown)
VH: B3 VH
VL: B3 VL with Y93L
notes: Human IgG1; CDR mutant of AE001-H3+L3; also called AE001-6Hc + 8Lc; AE001-6HC + 8LC
B6: AE001-9 (antibody, human IgG1, V domains shown)
VH: B3 VH
VL: B3 VL with Y93R
notes: Human IgG1; CDR mutant of AE001-H3+L3; also called AE001-6Hc + 9Lc; AE001-6HC + 9LC
B7: AE001-H3+L3 (antibody, V domains shown)
VH: B3 VH
VL: B3 VL with P92S, Y93N
notes: The same doubt about the 'constant region' label applies as for AE001-H1+L1; also called AE001H3 + AE001L3; humanized antibody
B8: AE001-H1+L1 (antibody, V domains shown)
VH: B3 VH with Q6E, V20I, R38K, E46K, V60F, K63D, T76A, E82Q, L83I
VL: B3 VL with L11M, I21M, A42S, L46W, L77M, P92S, Y93N
notes: also called AE001H1 + AE001L1; humanized antibody
B9: AE001-H2+L2 (antibody, V domains shown)
VH: B3 VH with V20I, V60F, L83I
VL: B3 VL with I21M, L46W, L77M, P92S, Y93N
notes: Humanized form of 35NIDmAb with the same CDRs; The same doubt about the 'constant region' label applies as for AE001-H1+L1; also called AE001H2 + AE001L2; humanized antibody

Target: B2
Assay: method not stated

Row | Kd | Binder
1 | 28 nM | B1

Target: the molecule itself
Assay: crystal structure of IFP35 NID alone

Row | Binder | binding result
2 | B2 | binds

Target: T1, human IFP35 protein
Assay: ELISA (OD450) on antigen IFP35

Row | EC50 (read off the curve) | Binder
3 | ~0.1 µg/mL | B3
4 | ~0.2 µg/mL | B4
5 | ~0.2 µg/mL | B5
6 | ~0.2 µg/mL | B6

Target: T1, human IFP35 protein
Assay: affinity kinetics (fortebio), antibody loaded

Row | Kd | koff | kon | Binder
7 | 13.9 nM | 0.00201 s⁻¹ | 145000 M⁻¹ s⁻¹ | B7
8 | 3.35 nM | 0.000508 s⁻¹ | 152000 M⁻¹ s⁻¹ | B3
9 | 3.46 nM | 0.000524 s⁻¹ | 151000 M⁻¹ s⁻¹ | B4
10 | 2.99 nM | 0.00044 s⁻¹ | 147000 M⁻¹ s⁻¹ | B5
11 | 3.04 nM | 0.000454 s⁻¹ | 149000 M⁻¹ s⁻¹ | B6

Target: T1, human IFP35 protein
Assay: ELISA (OD450) on human IFP35 protein

Row | EC50 (read off the curve) | Binder
12 | ~0.2 µg/mL | B7
13 | ~0.05 µg/mL | B8
14 | ~0.08 µg/mL | B9
15 | ~0.06 µg/mL | B1

Target: T1, human IFP35 protein
Assay: affinity kinetics (fortebio); upper end given to the clone said to show the best improvement

Row | fold increase in affinity against AE001-H3+L3 | Binder
16 | 2.5 to 4.6 fold | B5
